Assay results reported in patent publication US20210179726A1 (DINGFU BIOTARGET, published 2021).
Numbering of substitutions follows the chain as printed.

T1: hCD27-muFc (human; mouse, UniProt P26842 20-192)
T1 construct: range 1-192; Secreted from HEK293, Protein A purified; not shown: mouse IgG1-Fc (muFc), residues 98 to 324 of UniProt P01868
T1 sequence (looked up): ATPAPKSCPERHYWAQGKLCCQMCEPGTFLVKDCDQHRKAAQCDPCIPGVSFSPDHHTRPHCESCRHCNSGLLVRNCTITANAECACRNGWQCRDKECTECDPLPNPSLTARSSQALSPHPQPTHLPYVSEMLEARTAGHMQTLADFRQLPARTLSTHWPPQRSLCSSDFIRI

T2: hCD27-EGFP on HEK293 cells (human, UniProt P26842 20-260)
T2 construct: EGFP fusion expressed on transfected HEK293 cells; also called CD27-EGFP cells; cell surface CD27
T2 sequence (looked up): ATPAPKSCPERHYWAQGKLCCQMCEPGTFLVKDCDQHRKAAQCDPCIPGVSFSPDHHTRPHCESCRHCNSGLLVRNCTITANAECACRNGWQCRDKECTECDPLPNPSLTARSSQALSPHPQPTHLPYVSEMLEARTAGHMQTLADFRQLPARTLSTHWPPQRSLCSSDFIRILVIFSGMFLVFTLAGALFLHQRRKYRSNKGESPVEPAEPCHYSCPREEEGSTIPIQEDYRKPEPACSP

T3: hGITR-EGFP on HEK293 cells (human, UniProt Q9Y5U5 26-241)
T3 construct: EGFP fusion expressed on transfected HEK293 cells; also called human GITR
T3 sequence (looked up): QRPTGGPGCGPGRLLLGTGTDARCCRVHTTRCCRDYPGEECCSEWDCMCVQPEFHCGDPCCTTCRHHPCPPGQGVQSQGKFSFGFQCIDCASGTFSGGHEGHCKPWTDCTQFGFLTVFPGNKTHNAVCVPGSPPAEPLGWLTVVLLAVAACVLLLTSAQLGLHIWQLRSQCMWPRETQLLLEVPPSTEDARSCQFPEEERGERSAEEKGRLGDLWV

T4: hOX40-EGFP on HEK293 cells (human, UniProt P43489 29-277)
T4 construct: EGFP fusion expressed on transfected HEK293 cells; also called human OX40
T4 sequence (looked up): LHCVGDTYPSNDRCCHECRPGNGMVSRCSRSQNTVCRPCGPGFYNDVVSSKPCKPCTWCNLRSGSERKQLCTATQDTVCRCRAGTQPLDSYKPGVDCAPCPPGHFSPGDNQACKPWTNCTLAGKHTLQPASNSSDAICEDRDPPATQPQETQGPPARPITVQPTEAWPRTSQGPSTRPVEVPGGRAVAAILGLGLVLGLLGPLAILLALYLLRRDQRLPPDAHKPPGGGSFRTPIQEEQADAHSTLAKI

B1: d14822 (antibody, human IgG1, V domains shown, not shown: a dimerising Fc or GST)
VH: EVHLQESGGGLVKPGGSLRLSCAASGFTFSSYAMSWVRQTPDKGLEWVAIIGDGDTYTYYPDSVKGRFTISRDNSKNTLYLQMNDLKSEDTAMYYCVRTRGGPFDYWGQGTTLTVSS
VL: EILLTQSPAFMSATPGEKVTITCSASSSVGSMHWYQQKSGQSPRRLIYDTSKLASGVPDRFSGSGSGTDYTLTISSLEAEDAATYYCQQWSSIPPTFGAGTTLELK
notes: Humanized m2F11, human IgG1 / kappa
B2: 9424 (antibody, human IgG1, V domains shown, not shown: a dimerising Fc or GST)
VH: B1 VH with D42E, S75A, D85S
VL: B1 VL
notes: as for B1
B3: 16647 (antibody, human IgG1, V domains shown, not shown: a dimerising Fc or GST)
VH: B1 VH with E1Q, H3E, Q5R, T40M, D42G, T78R, D85S
VL: B1 VL
notes: as for B1
B4: d12674 (antibody, human IgG1, V domains shown, not shown: a dimerising Fc or GST)
VH: B1 VH with T40A, D42G, T78R
VL: B1 VL
notes: as for B1
B5: 12996 (antibody, human IgG1, V domains shown, not shown: a dimerising Fc or GST)
VH: B1 VH with T40A, D42E, T78R, D85S
VL: B1 VL
notes: as for B1
B6: d12996 (antibody, human IgG1, V domains shown, not shown: a dimerising Fc or GST)
VH: B1 VH with T40E, D42E, G44N, T78R
VL: B1 VL
notes: as for B1
B7: d9419 (antibody, human IgG1, V domains shown, not shown: a dimerising Fc or GST)
VH: B1 VH with G10A, T40K, D42E, G44N, S75A, N84S
VL: B1 VL
notes: as for B1
B8: 12674 (antibody, human IgG1, V domains shown, not shown: a dimerising Fc or GST)
VH: B1 VH with T40A, D42G, T78R, D85S
VL: B1 VL
notes: as for B1
B9: 9419 (antibody, human IgG1, V domains shown, not shown: a dimerising Fc or GST)
VH: B1 VH with G10A, T40A, D42E, S75A, N84S, D85N
VL: B1 VL
notes: as for B1
B10: d16647 (antibody, human IgG1, V domains shown, not shown: a dimerising Fc or GST)
VH: B1 VH with E1Q, H3E, Q5R, T78R
VL: B1 VL
notes: as for B1
B11: 14822 (antibody, human IgG1, V domains shown, not shown: a dimerising Fc or GST)
VH: B1 VH with T40M, D42G, D85S
VL: B1 VL
notes: as for B1
B12: m1A8 (antibody, human IgG1, V domains shown)
VH: EVQLQESGAELVKPGASVKLSCKASGYSFTSSWMHWVKQRPGQGLEWIGMIHPDSGFTNYNEKFKSKATLTVDKSSSTAYMRLSSLTSEDSAVYYCARTSYYDTSYTSMDFWGQGNSVTVSS
VL: DIVLTQSPAILSVSPGERVSFSCRASQSIGTSIHWYQQRTNGSPRLLIKYASESISGIPSRFSGSGSGTDFTLSINSVESEDIADYYCQQSNSWPLTFGAGTKLELK
notes: Chimeric antibody: mouse VH/VL on human IgG1 / human kappa constant regions; also called clone 1A8; not shown: human IgG1 constant region, UniProt P01857
B13: m4G1 (antibody, human IgG1, V domains shown)
VH: QVQLQQSGPELVKPGASVKISCKASGYSFTAYNMNWVKQSKGKSLEWIGLINPNYATTSYNQKFKDKATLTVDQSSSTAYMQLNSLTSEDSAVYYCAYYSYYSYGGGYAMDYWGQGTSVTVSS
VL: B12 VL with V3L, T72I, L96W, A100G, K103R, L106I
notes: Chimeric antibody: mouse VH/VL on human IgG1 / human kappa constant regions; also called clone 4G1; not shown: human IgG1 constant region, UniProt P01857
B14: m2B8 (antibody, human IgG1, V domains shown)
VH: EVQLQESGGGLVQPKGSLKLSCAASGFNFNTYTMNWVRQAPGKGLEWVARIRYKSNNYATYYADSVKDRFTISRDDSESILYLQMNNLRTDDTAIYFCVRELGLWYFDVWGAGTTVTVSS
VL: DIVMTQSPSYLAASPGETITINCRASKSISKYLAWYREKPGKTNNLLIYSGSTLQSGIPSRFSGSGSGTDFTLTISSLEPEDFAMYYCQQHNEYPLTFGAGTKLELK
notes: Chimeric antibody: mouse VH/VL on human IgG1 / human kappa constant regions; also called clone 2B8; not shown: human IgG1 constant region, UniProt P01857

target: T1, hCD27-muFc; assay: ELISA, plate coated with hCD27-muFc, Test 2
Method: (§1) The ELISA plate was coated with 2 μg/ml hCD27-muFc, 100 μl/well and incubated at 4° C. overnight. Then it was washed once with 10 mM, pH 7.4 PBS/Tween (0.05%), blocked with PBST containing 5% skimmed milk powder and incubated at 37° C. for 2 h. After washing the plate for 4 times, the humanized antibodies were added and incubated at 37° C. for 40 min, then it was washed for 4 times. Anti-human IgG-HRP-conjugated secondary antibody (Sigma, Cat #A0170-1M) was added and incubated at 37° C. for 40 min. After washing, the plate was developed with TMB substrate and spectrophotometric analysis was performed at OD₄₅₀. In FIGS. 5A-5B, each curve represents the binding result obtained for one of the humanized antibodies. From the results, it can be seen that all these humanized antibodies could bind to human CD27.

Row | Binder | EC50 [µg/mL]
1 | B1 | 0.0339
2 | B2 | 0.0342
3 | B3 | 0.0445
4 | B4 | 0.0424

target: T1, hCD27-muFc; assay: BLI (Octet K2), antibody on Protein A biosensor, hCD27-muFc in solution
Method: Using the BLI method, each humanized antibody was immobilized on a Protein A biosensor at a concentration of 10 μg/ml, while hCD27-muFc was subjected to 2-fold serial dilution, starting from 100 nM, to obtain 5 gradient dilutions for each antibody. The reaction plate was placed on the Octet K2 instrument. The parameters were set to Baseline 70 s, Association 80 s, Dissociation 300 s, Baseline 260 s, Loading 40 s, and Custom 5 s.

Row | Binder | Kd [nM] | koff [s⁻¹] | kon [M⁻¹ s⁻¹]
5 | B5 | 4.98 | 0.000368 | 73900
6 | B1 | 4.27 | 0.000334 | 78200
7 | B2 | 7.02 | 0.000396 | 56500
8 | B6 | 3.39 | 0.000326 | 96200
9 | B7 | 1.7 | 0.000205 | 120000
10 | B8 | 3.66 | 0.000291 | 79500
11 | B3 | 4.86 | 0.000348 | 71500
12 | B9 | 2.73 | 0.000287 | 105000
13 | B4 | 5 | 0.000447 | 89400
14 | B10 | 3.05 | 0.000281 | 92100
15 | B11 | 5.15 | 0.000499 | 97000

target: T2, hCD27-EGFP on HEK293 cells; assay: FACS titration on CD27-EGFP HEK293 cells, 8 three-fold dilutions from 20 µg/ml, anti-human Ig-APC secondary, MFI; table drawn under the plot, unit from the x axis; no upper plateau reached
Method: Based on the above results of ELISA, 7 humanized antibodies were selected to examine their affinities to cell surface CD27. Briefly, 5×10⁵ CD27-EGFP cells prepared in Example 1 were washed twice in PBS, each of the humanized antibodies (d16647, d12996, d9419, 14822, 9424, d14822, d12674) was added. The antibodies were subjected to 3-fold serial dilution, starting from 20 μg/ml, to obtain 8 gradient dilutions for each antibody. The antibodies and the cells were incubated at 4° C. for 30 min. Then, it was washed twice with PBS, anti-human Ig-APC (Jackson ImmunoResearch Laboratories, Cat #109-135-098) was added, and incubated at 4° C. for 30 min, washed twice with PBS and resuspended in 300 μl PBS. Flow cytometry was then performed, and the results are shown in FIG. 6. m2F11 was used as a control.

Row | Binder | LogEC50
16 | B1 | 0.373 Log10(ug/ml)
17 | B2 | 0.546 Log10(ug/ml)
18 | B6 | 0.562 Log10(ug/ml)
19 | B7 | 0.564 Log10(ug/ml)
20 | B4 | 0.635 Log10(ug/ml)
21 | B10 | 0.601 Log10(ug/ml)
22 | B11 | 0.62 Log10(ug/ml)

target: T3, hGITR-EGFP on HEK293 cells; assay: FACS on hGITR-EGFP HEK293 cells
Method: (§2) The hCD137-EGFP, hOX40-EGFP and hGITR-EGFP cells as described in Example 1 were washed twice in PBS, 10 μg/ml of each chimeric antibody as prepared in Example 3 (m2E7, m2B8, m4H3, m3E7, m1A8, m4G1, m2G3, m2F11 and m3B8) was added to each type of cells and incubated at 4° C. for 30 min. Then it was washed twice with PBS, anti-human Ig-APC (Jackson ImmunoResearch Laboratories, Cat #109-135-098) was added and were incubated at 4° C. for 30 min, washed twice with PBS and resuspended in 300 μl PBS. In FIG. 2, NC represents negative control (PBS), a-hlg-APC represents secondary antibody only, the other panels represent results obtained with each of the corresponding clone, respectively.

Row | Binder | binding result
23 | B12 | no binding (tested: 10 µg/ml)
24 | B13 | no binding (tested: 10 µg/ml)
25 | B14 | no binding (tested: 10 µg/ml)

target: T4, hOX40-EGFP on HEK293 cells; assay: FACS on hOX40-EGFP HEK293 cells
Method: as §2

Row | Binder | binding result
26 | B12 | no binding (tested: 10 µg/ml)
27 | B13 | no binding (tested: 10 µg/ml)
28 | B14 | no binding (tested: 10 µg/ml)

target: T5, hCD137-EGFP on HEK293 cells (human, UniProt Q07011 24-255); assay: FACS on hCD137-EGFP HEK293 cells
T5 construct: EGFP fusion expressed on transfected HEK293 cells; also called human CD137
T5 sequence (Q07011 24-255): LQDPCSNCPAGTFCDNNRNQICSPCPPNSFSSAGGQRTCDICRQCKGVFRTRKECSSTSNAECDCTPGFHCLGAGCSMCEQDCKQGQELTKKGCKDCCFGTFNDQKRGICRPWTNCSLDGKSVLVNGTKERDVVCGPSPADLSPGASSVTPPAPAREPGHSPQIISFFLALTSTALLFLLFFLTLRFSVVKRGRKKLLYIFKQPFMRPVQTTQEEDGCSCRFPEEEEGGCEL
Method: as §2

Row | Binder | binding result
29 | B12 | no binding (tested: 10 µg/ml)
30 | B13 | no binding (tested: 10 µg/ml)
31 | B14 | no binding (tested: 10 µg/ml)

target: T1, hCD27-muFc; assay: ELISA, plate coated with hCD27-muFc, Test 1
Method: as §1

Row | Binder | EC50 [µg/mL]
32 | B5 | 0.0506
33 | B6 | 0.03
34 | B7 | 0.033
35 | B8 | 0.0585
36 | B9 | 0.0583
37 | B10 | 0.0376
38 | B11 | 0.0427
